The test deals with human active plasmin (human).

The values that follow come from PMC6461989.

Chain of human active plasmin (human) (P00747 20-580, chain 1 of 2): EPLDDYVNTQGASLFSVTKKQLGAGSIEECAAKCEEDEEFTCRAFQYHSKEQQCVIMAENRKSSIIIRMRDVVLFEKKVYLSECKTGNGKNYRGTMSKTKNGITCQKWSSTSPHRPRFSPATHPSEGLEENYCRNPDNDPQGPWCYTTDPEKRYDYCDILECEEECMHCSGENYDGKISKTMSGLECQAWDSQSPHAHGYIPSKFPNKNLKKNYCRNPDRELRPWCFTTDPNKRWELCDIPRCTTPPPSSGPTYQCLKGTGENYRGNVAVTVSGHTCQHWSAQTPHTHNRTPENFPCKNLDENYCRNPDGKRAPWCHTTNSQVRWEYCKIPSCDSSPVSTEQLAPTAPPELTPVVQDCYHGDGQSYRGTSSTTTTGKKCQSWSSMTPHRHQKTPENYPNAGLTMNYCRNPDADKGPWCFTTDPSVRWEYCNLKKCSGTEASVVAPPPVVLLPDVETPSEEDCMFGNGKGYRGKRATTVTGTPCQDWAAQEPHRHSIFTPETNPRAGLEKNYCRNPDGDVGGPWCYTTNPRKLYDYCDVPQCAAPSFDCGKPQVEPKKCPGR
Chain of human active plasmin (human) (P00747 581-810, chain 2 of 2): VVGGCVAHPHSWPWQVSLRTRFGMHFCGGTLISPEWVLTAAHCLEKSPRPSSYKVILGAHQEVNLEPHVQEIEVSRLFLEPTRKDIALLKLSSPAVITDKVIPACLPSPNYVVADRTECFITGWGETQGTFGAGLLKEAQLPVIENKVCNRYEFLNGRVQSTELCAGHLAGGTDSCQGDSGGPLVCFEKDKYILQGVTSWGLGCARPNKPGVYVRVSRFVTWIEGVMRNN

B1: α-2-antiplasmin (natural protein)
chain: NQEQVSPLTLLKLGNQEPGGQTALKSPPGVCSRDPTPEQTHRLARAMMAFTADLFSLVAQTSTCPNLILSPLSVALALSHLALGAQNHTLQRLQQVLHAGSGPCLPHLLSRLCQDLGPGAFRLAARMYLQKGFPIKEDFLEQSEQLFGAKPVSLTGKQEDDLANINQWVKEATEGKIQEFLSGLPEDTVLLLLNAIHFQGFWRNKFDPSLTQRDSFHLDEQFTVPVEMMQARTYPLRWFLLEQPEIQVAHFPFKNNMSFVVLVPTHFEWNVSQVLANLSWDTLHPPLVWERPTKVRLPKLYLKHQMDLVATLSQLGLQELFQAPDLRGISEQSLVVSGVQHQSTLELSEVGVEAAAATSIAMSRMSLSSFSVNRPFLFFIFEDTTGLPLFVGSVRNPNPSAPRELKEQQDSPGNKDFLQSLKGFPRGDKLFGPDLKLVPPMEEDYPQFGSPK
On to B1, for which the inhibition of plasmin activity, low ratio (~40%) to high ratio of α-2-antiplasmin to plasmin (Supplementary Figure S13B) is above 99%.

B2: recombinant HAI-2 (rHAI-2) proteins containing the extracellular region of HAI-2 (domain or fragment)
chain: ADRERSIHDFCLVSKVVGRCRASMPRWWYNVTDGSCQLFVYGGCDGNSNNYLTKEECLKKCATVTENATGDLATSRNAADSSVPSAPRRQDSEDHSSDMFNYEEYCTANAVTGPCRASFPRWYFDVERNSCNNFIYGGCRGNKNSYRSEEACMLRCFRQQENPPLPLGSK
With B2, the inhibition of plasmin activity in the presence of equimolar uPA and plasminogen, ratio of HAI-2 to uPA/plasminogen 1:1 (~20% inhibition) to 10:1 (Supplementary Figure S13A) was 75%; the inhibition of plasmin activity, high ratio of HAI-2 to plasmin (Supplementary Figure S13B) came to 66%.
